From the nanobody polyreactivity screen of Harvey et al. (2022)

Experiment: yeast display, Sf9 membrane polyspecificity reagent, FACS + sequencing; frameworks hold sequencing errors
Method in brief: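 In a synthetic yeast display library (Saccharomyces cerevisiae BJ5465), nanobody expression was induced with galactose for 36–48 hours. FACS gates were set low and high (top ~1%) using anti-HA fluorescence for expression and streptavidin fluorescence for binding of the Sf9 membrane reagent. Each polyreactivity label is drawn from the gate of origin.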

QVQLVESGGGLVQAGGSLRVSCAASGSNFLGYTMGWYRQAPGKERELVAAINSSGGSTYYADSVKGRFTISRDNAKNNVYLQMNSLKPEDTAVYYCADANSILLFDSWGQGTQVTVSS
polyreactivity (PSR sort gate): low polyreactivity

QVQHVESGGGLVQAGGSLRLSCAASGLIFSRYVMGWYRQAPGKERELVAAISRSGGSTYYADSVKGRFTISRDNAKNTVYLQMNSLKPEDTAVYYCNAGRRTGRYGYWGQGTQVTVSS
polyreactivity (PSR sort gate): high polyreactivity

QVQLVESGGGLVQEGGSLRLSCAASGSIFSTYVMGWYRQAPGKERELVAAISRRGGSTYYADSVKGRFTISRDNAKNTVYLQMNSLKPEDTAVYYCAADGTVGRRDYWGQGTQVTVSS
polyreactivity (PSR sort gate): high polyreactivity

QVQLVESGGGLVQAGGSLRLSCAASGSTFYENAKGWYRQAPGKERELVAGISRGGGSTYYADSVKGRFTISRDNAKNTVYLQMNSLKPEDTAVYYCARRPRYGVEYNYWGQGTQVTVSS
polyreactivity (PSR sort gate): low polyreactivity

QVQLVESGGGLVQAGGSLRLSCAASGSTFASYAMGWNRQAPGKEREFVAAISRSGGSTYYADSVKWRFTISRDNAKNTVYLQMNSLKPEDTAVYYCAARSPSADEYYFWGQGTQVTVSS
polyreactivity (PSR sort gate): low polyreactivity

QVKLVESGGGLVQAGGSLRLSCAASGFTIQRYAMGWYRQAPGKERELVAAITSGGSTYYADSVKGRFTISRDNAKNTVYLQMNSLKPEDTAVYYCATRAVWSSWGRRYDSWGQGTQVTVSS
polyreactivity (PSR sort gate): high polyreactivity

QVQLVESGGGLVQAGGSLRLSCAASGRIFKRNVMGWYRQAPGKERELVAAIRYSGGNTYYADSVKGRFTISRDNAKNTVYLQMNSLKPEDTAVYYCAAQQWSYTQSRLYDMGYWGQGTQVTVSS
polyreactivity (PSR sort gate): high polyreactivity

QVQLVESGGGLVQAGGSLRLSCAASGLTFVTYVMGWYRQAPGKERELVAAISYSGGSTYYADSVKGRFTISRDNAKNTVYLQMNSLKPEDTAVYYCAAEWYGYQEDDYRGQGTQVTVSS
polyreactivity (PSR sort gate): low polyreactivity

QVQLVESCGGLVQAGGSLRLICAASGITFYRNAMGGYRQAPWKERELVAAITRRGGSTYYADSVKGRFTISRDNAKNTVYCQMNIVKPEDTAVYYCAAQDATRGDGYWGQGTQVTVSS
polyreactivity (PSR sort gate): high polyreactivity

QVQLVESGGGLVQAGGSLRLSCAASGSIFRFNAMGWYRQAAGKERELVAAISVRGSRTYYADSVKGRFTSSSDNAKNTVYLQMNSLKPEDTAVYYCNAEALTYSSRYDYWGQGTQVTVSS
polyreactivity (PSR sort gate): low polyreactivity

QVQLVESGGGVVQAGGSLRLSCAASGSTFYSYAMGWYRPAPGKERELVAAISWDGGRTYYADSVKGRFTISRDNAQNTVYLQMNSMKPEDTAVYYCAARKGELWFPQGGYNYSGQGTQVTVSS
polyreactivity (PSR sort gate): low polyreactivity

QVQLVESGGGLVKAGGSLRLSCAPSGSSFYYAMGWYRQAPGKERELVAAINSGGSTNYADSVKGRFTISRDNAKNTVYLQMNSLKPEDTAVYYCAADLYGYWWSFDYDYWGQGTQVTVSS
polyreactivity (PSR sort gate): low polyreactivity

QVQLVESGGGLVQAGGSLRLSCAASGRTFYTNALGWYRQAPGKERELVAVISRGGTTYYADSVKGRFTISRDNAKNTVYLQMNSLKPEDTAVYYCAKQRPSGDSSSQMGSWGQGTQVTVSS
polyreactivity (PSR sort gate): low polyreactivity

QVQLVESGGGLVQAGGSLRLSCAASGFTFFDNAMGWYRQAPGKERELVAAITWSDGSTYYADSVKGRFTISRDNAKNTVYLQMNSLKAEDTAVYYCAVGFISYSYSNYYDVWYEYYYWGQGTQVTVSS
polyreactivity (PSR sort gate): low polyreactivity

QVQLVESGGGLVQAGGSLRLSCAASGITFSYNAMGWSRQAPGKERELVAAIRVGDGSTYYADSVKGRFTISRDNAKNTVYLQMNSLKPEDTAVYYCNARYLRLRYPYTDEYNYWGQGTQVTVSS
polyreactivity (PSR sort gate): low polyreactivity

QVQLVESGGGLVQAGGSLRLSCAASGFIFKYNVMGWYRQAPGKERELVAAIRGSGRTYYADSVKGRFTISRDNAKNTVYLQMNSLKPEDTAVYYCGADIQAYASRVYAGFDYWGQGTQVTVSS
polyreactivity (PSR sort gate): low polyreactivity

QVQLVESGGGLVQAGGSLRLSCAASGRTFGWNGMGWYRQAPGKERELVAVISSGGSTKYADSVKGRFTISRDNAKNTVYLQMNSLKPEDTAVYYCAKDWVRSGRRKMDYWGQGTQVTVSS
polyreactivity (PSR sort gate): low polyreactivity

QVQRVESGGGLLQAGGSLSLSCAASGSIFEWYAMGWYRQEPGTERELVAAIRSGGTTNYADSVKGRFTISRDHAKNTVYLQMNSLKPEVTAVYDCAAKSVTGLFRYYYWGQGTQVTVTS
polyreactivity (PSR sort gate): low polyreactivity

QVQLVESGGRLVQAGGSLRLSCAASGLIIDVNTMGWYRQAPGKDRELVAAITGSGGRTYYADSVKGRFTISRDNAKNTVYLQMNSLKPEDSAVYYCNADTSYVGFDFWGQGTQVTVSS
polyreactivity (PSR sort gate): low polyreactivity

QVQLVESGGGLVQAGGSLRLSCAASGSTFWYNAMGWYRQAPGKERELVAAISQSGGRTYYADSVKGRFTISRDNAKNTVYLQMNSLKPEDTAVYYCNAVSRDKSLYDYWGQGTQVTVSS
polyreactivity (PSR sort gate): high polyreactivity

QVQLVESGGGLVQAGGSLRLSCAASGRTFALNAMGWYRQAPGKERELVAAISWSSGRTYYADSVKGRFTISRDNAKNTDYLKMNSLKPEDSAVYYCAALVAHKGDYWGQGTQVTVSS
polyreactivity (PSR sort gate): high polyreactivity

QVHLVESGGGLVQAGGSLRLSCAASGRIFAYYTMGWYRQAPGKERELVAAITSRGGSTYYADSVKGRFTISRDNAKKTVYLQMNSLKPEDTAVYYCADMRPSNVDYWGQGTQVTVSS
polyreactivity (PSR sort gate): high polyreactivity

QVQLVESGGGLVQEGGSLRLTCAASGRIFVYNAMGWYRQAPRKDRELVAAISWRGDGTYYADSVKGLFTISRDNAKITVYLQMNSLKPEDTAVYYCAADYVYYYHEYDYWGQGTQVTVSS
polyreactivity (PSR sort gate): low polyreactivity

QVQLVESGGGLVQAGGSHRLSCAASGSIFKRNAMRSYRQAPGKERELVAAISRSGGSTYYADSVKGRFTISRDFAKNTVYLQMNSLKPEDTAVYYCDARRKLGYGSENDYWGQGTQVTVSS
polyreactivity (PSR sort gate): high polyreactivity

QVQLVESGGGLVQAGGSLSLSCAASGGTFTFYAMGWYRQAPGKERELVATINWSGGSTYYADSVKGRFTISRDNAKNTVYIQMNCLKPEDSAVYYCNAAWAYKSVEYWGQGTQVTVSS
polyreactivity (PSR sort gate): low polyreactivity

QVQLVESGGGLVQAGGSLRLSCAASGSTFYDYAMGWYRQAPGKERELVAAITSGGSTDYADSVKGRFTISRDNAKNTVYLQMNSLKPEDTAVYYCATDTDSNYISHQFVWYDYWGQGTQVTVSS
polyreactivity (PSR sort gate): low polyreactivity

QVQLVESGGGLVQAGGSLRLSCAPSGIILGYYAMGWYRQAPGKERELVAAISSGGRTYYADSVKGRFTISRDNAKNTVYLQMNSLKPEDTAVYYCAADDTRGREEYDYWGQGTQVTVSS
polyreactivity (PSR sort gate): high polyreactivity

QVQLVESGGGLVQAGGSLRLSCAASGSTFDINAMGWYRQAPGKEWELVAAITWSGDSTYYADSVKGRFTSSRDYAKHTVSLQMNSLKPEDTAVYYCAADYPYSYYEYSSYYYWGQGTQVTVSS
polyreactivity (PSR sort gate): low polyreactivity

QVQLVESGGGLVQAGGSLRLSCAASGSTFFSYAMGWYRQAPGKERELVAAISNTGGTHYADSVKGRFTISRDNAKNTVYLQMNSLKPEDTAVFYCAADGWYYIGPFSVYSSFTSDYWGQGTQLTVSS
polyreactivity (PSR sort gate): low polyreactivity

QVQLVESGGGLVQAGGSLRLSCAASGSTFYGYAKGWYRQAPGKERELVAAITRSGGSTYYADSVKGRFTISRDNAKNTVYLQMNSLKPEDTAVYYCAVATGPVSYRRYYWGQGTQVTVSS
polyreactivity (PSR sort gate): high polyreactivity

QVQLVESGGGLVQAGGSLRLSCAASGSTFQTYAMGWYRQAPGKERELVASISYGVTTYYADSVKGRFTISRDNAKNTVYLQMNSLKPEDTAVYYCAREGYKWVYLSYGYWGQGTQVTVSS
polyreactivity (PSR sort gate): low polyreactivity

QVQIVESGGGLVQAGGSLRLSCAASGSTFKRYAMGWYRQAPGKERELVAAITWRGGSTYYADSVKGRFTISRDNAKNTVYLQMNSLKPEDTAVYYCAARANYFGWPKSYYYWGQGTQVTVSS
polyreactivity (PSR sort gate): high polyreactivity

QVQLVESGGGLVQAGGSHRLSCAASGYIFQWNAMGWYRQAPGKERELVATISRRGGSTYYADSVKGRFTISRDNAKNTVYLQMNSLKPEDTAVYYCNAVFGSYKDYGYWGQGTQVTVSS
polyreactivity (PSR sort gate): low polyreactivity

QVQLVESGGGLVQAGGSLRLSCAASGSIFWSNAMGWYRQAPGKERELVAAINQSGTSTYYADSVKGRFTISRDNAKNTVYLQMNSLKTEDTAVYYCAADQVGWTYDYWGQGTQVSVSS
polyreactivity (PSR sort gate): low polyreactivity

QVQLVESGGGLVQAGGSLRLSCAASGFIFSYYAMGWYRQAPGKERELVAAITWDGGSTYYADSVKGRFTISRDNAKNTVYLQMNSLKPEDTAVYYCNAYYYYRRPLEGGYGGQGTQVTVSS
polyreactivity (PSR sort gate): low polyreactivity

QVQLQESGRRPGAAGGSPRMSCAASGNIFWVAVMGRYRQAPGKERELVASIGFGCTTYYADSVKCRFTISRDNAKNTVYLQMISLKPEDTAVYYCAAPHYDWGELDYWGQGTQVPVSS
polyreactivity (PSR sort gate): low polyreactivity

QVQLQESGGGLVQAGGSLRLSCAASGSIYDDTYMGWSRQAPGKERELVATIDSGSTTNYADSVKGRITISRDNAKNTVYLQMNSLKPEDTAVYYCAAADSHIDYFDYWGQGTQVTVSS
polyreactivity (PSR sort gate): low polyreactivity

QVQLVESGGGLVQAGVSLRLSCAASGGTFSRNAMGWYRQAPGKERELVAAINSSGVSTSYADSVKGRFTISRDNAKNTVYLQMNSLKPEDTAVYYCAAETSSAEVDYWGQGTQVTVSS
polyreactivity (PSR sort gate): low polyreactivity

QVQLVESGGGLVQAGGSLRLSSAASGRIFQLYTMGWYRQAPGKEREMVAAITSGTSTSYADSVKGRFTISRDNAKNSVYLQMNSLKPEDTAVYYCNKGSVSYCSVFVPYESDYWGQGTQVTVSS
polyreactivity (PSR sort gate): low polyreactivity

QVQLVESGGGLVQAGGSLRLSCAASGFTYVVYDMGWYRQAPGKERELLAVITNSGGSTYYADSVKGRFTISRDNAKNTVYLQMYSLKPEDTAVYYCATRTPVWVNTESDYWGQGTQVTVSS
polyreactivity (PSR sort gate): low polyreactivity

QVQLVESGGGLVQAGGSLRLSCAASGITFTRNVMGWYRQAPGKERELVAAISGSGGSTYYADSVKGRFTISRDNAKNTFYLQMNSLKPEDTAVYYCAARSRGGRRYDYWGQGTQVTVSS
polyreactivity (PSR sort gate): high polyreactivity

QVQLVESGGGLVQAGGSLRLSCAASGYTFPFYTMGWYRQAPGKERELVAAINSGGSTYYADSVKGRFTISRDNAKNTVYLQMNSLKPEDNAVYYCAVEGGFRVRYQAQYRYYYCGQGTQVTVSS
polyreactivity (PSR sort gate): high polyreactivity

QVQLVETGGGLVQAGGSLRLSCAASGSTLTYYTMGWYRQAPGKERELVARISWSSGRTYYAVSVKGRFTISRDNAMNTVYLQMNSLKPEDTAVYYCNADRTYYRGLDYWGQGTQVTVSS
polyreactivity (PSR sort gate): high polyreactivity
